In paper PMC8590968:

How the values were obtained:
[1] = target: Sambucus nigra lectin (Sambucus nigra); test: immunostaining of cells or tissue
[2] = target: Maackia amurensis lectin II (Maackia amurensis); test: immunostaining of cells or tissue

Chain of Sambucus nigra lectin (Sambucus nigra) (Q41358 29-289 limits assumed, chain 1 of 2): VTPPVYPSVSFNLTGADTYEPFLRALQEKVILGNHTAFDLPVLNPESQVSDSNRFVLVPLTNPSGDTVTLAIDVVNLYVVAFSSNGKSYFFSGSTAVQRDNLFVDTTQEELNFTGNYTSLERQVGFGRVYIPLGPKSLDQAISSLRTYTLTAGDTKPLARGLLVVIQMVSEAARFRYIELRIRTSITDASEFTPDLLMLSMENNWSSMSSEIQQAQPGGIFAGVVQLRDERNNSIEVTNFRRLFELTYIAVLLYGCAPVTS
Chain of Sambucus nigra lectin (Sambucus nigra) (Q41358 309-570 limits assumed, chain 2 of 2): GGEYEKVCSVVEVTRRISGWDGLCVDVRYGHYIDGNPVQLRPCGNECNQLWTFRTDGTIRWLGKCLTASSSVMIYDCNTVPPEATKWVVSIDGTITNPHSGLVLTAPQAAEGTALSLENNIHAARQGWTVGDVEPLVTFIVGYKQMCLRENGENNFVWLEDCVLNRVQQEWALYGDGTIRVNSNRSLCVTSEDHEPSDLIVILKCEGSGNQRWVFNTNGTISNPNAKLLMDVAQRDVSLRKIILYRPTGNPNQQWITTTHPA

Substance | percent reduction of lectin bound to MDCK cells [1] [%] | percent reduction of lectin bound to MDCK cells [2] [%]
desialylated bovine lactoferrin (natural protein) | 60 | 
native bovine lactoferrin (natural protein) |  | 40
